This is an account of results in patent US20190023792A1 (Innovent, published 2019).

Changes are numbered by the printed parent chain. Names may count otherwise.

Assay [1] has as its target b-PD-1 monomer (human PD-1) (human) (UniProt Q15116). In words: MSD solution equilibrium titration, avid KD.
Assay [2] has as its target T1, human PD-1 on cells (human, UniProt Q15116 25-288). In words: flow cytometry blocking assay, 100 nM control IgG on CHO cells with human PD-1, then PD-L2-FITC (remaining ligand signal). In general terms: Flow cytometry measures light scatter and fluorescence of single cells or particles in a stream.
In a further assay the target is cynoPD-1_Fc (cyno) (UniProt B0LAJ3). In words: BLI (ForteBio), Fab in solution, cynoPD-1_Fc on sensor tip. Background: In BLI a coated tip is dipped into the sample, and binding shifts an interference pattern.
Chain of cynoPD-1_Fc (cyno) (B0LAJ3 entry or part of it limits assumed): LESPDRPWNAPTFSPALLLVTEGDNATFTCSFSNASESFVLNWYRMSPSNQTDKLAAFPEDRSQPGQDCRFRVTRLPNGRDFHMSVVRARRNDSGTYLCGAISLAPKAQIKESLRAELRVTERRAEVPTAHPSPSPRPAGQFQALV
Assay [3] addresses T1, human PD-1 on cells. The assay can be described thus: cell-based or functional assay.
In assay [4] the target is T1, human PD-1 on cells. The assay can be described thus: cell-based or functional assay. The source holds these as a separate data set.
The target in assay [5] is T1, human PD-1 on cells. In words: flow cytometry on CHO cells with human PD-1, n=1. On the procedure:
Cells are then washed 3×, and are incubated with a secondary antibody (PE-labelled, at final concentration of 5 μg/ml) in PBS 1% BSA for 30 min on ice (protected from light). Cells are washed 3× and analyzed via flow cytometry. Flow cytometry is performed on an Accuri C6 system (BD Biosciences) and MFIs are calculated on the C6 software. EC50s are calculated on Graphpad software.

A further assay concerns the target T2, human PD-1_Fc (human, UniProt Q15116 25-167, limits assumed).
T2 construct: also called hPD-1_Fc
The assay can be described thus: BLI (ForteBio), Fab in solution, hPD-1_Fc on sensor tip.

The target in the next assay is cynoPD-1_Fc (cyno, UniProt B0LAJ3 25-170). In words: BLI (ForteBio), Fab in solution, cynoPD-1_Fc on sensor tip.
Chain of cynoPD-1_Fc (B0LAJ3 entry or part of it limits assumed): as above
The target in assay [6] is T3, b-PD-1 monomer (human PD-1) (human, UniProt Q15116 25-167, limits assumed, biotinylated (b-PD-1; detected with streptavidin), site not stated).
T3 construct: The antigen used for the avid KD is not described separately; also called antigen
T3 sequence (Q15116 25-167 limits assumed): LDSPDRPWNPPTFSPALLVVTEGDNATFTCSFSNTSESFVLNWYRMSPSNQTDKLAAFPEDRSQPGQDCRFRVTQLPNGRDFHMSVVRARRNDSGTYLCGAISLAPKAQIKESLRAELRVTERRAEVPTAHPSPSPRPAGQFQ
The assay can be described thus: MSD solution equilibrium titration, avid KD. On the procedure:
(§1) Equilibrium affinity measurements are performed as previously described (Estep, P., et al., MAbs, 2013.5 (2): p. 270-8). Solution equilibrium titrations (SET) are performed in PBS+0.1% IgG-Free BSA (PBSF) where antigen (b-PD-1 monomer) is held constant at 10-100 pM and is incubated with 3-to 5-fold serial dilutions of Fab or mAbs starting at 5-100 nM (experimental condition is sample dependent). Antibodies diluted at 20 nM in PBS are coated onto standard bind MSD-ECL plates overnight at 4° C. or at room temperature for 30 min. Plates are blocked with BSA for 30 min whilst shaking at 700 rpm. Plates are then washed 3× with wash buffer (PBSF+0.05% Tween 20). SET samples are applied and incubated on the plates for 150 s with shaking at 700 rpm followed by one wash. Antigen captured on a plate is detected with 250 ng/mL sulfotag-labeled streptavidin in PBSF by incubation on the plate for 3 min. The plates are washed three times with wash buffer and are then read on the MSD Sector Imager 2400 instrument using 1× Read Buffer T with surfactant. The percent free antigen is plotted as a function of titrated antibody in Prism and fit to a quadratic equation to extract the KD. To improve throughput, liquid handling robots are used throughout MSD-SET experiments, including for SET sample preparation.

For assay [7], the target named is T3, b-PD-1 monomer (human PD-1). The assay can be described thus: MSD solution equilibrium titration, monovalent KD. On the procedure:
as §1

A further assay concerns the target T4, human PD-1_His (human, UniProt Q15116 25-167, limits assumed).
T4 construct: also called hPD-1_HIS
In words: BLI (ForteBio), hPD-1_HIS in solution, IgG on sensor tip. As for the experimental part:
Briefly, ForteBio affinity measurements were performed by loading IgGs online onto AHQ sensors. Sensors were equilibrated off-line in assay buffer for 30 min and then monitored on-line for 60 seconds for baseline establishment. Sensors with loaded IgGs were exposed to 100 nM antigen for 5 min, afterwards they were transferred to assay buffer for 5 min for off-rate measurement. Kinetics was analyzed using the 1:1 binding model.

The target in assay [8] is T1, human PD-1 on cells. In words: flow cytometry blocking assay, 100 nM antibody on CHO cells with human PD-1, then PD-L2-FITC (remaining ligand signal). As for the experimental part: CHO cells 0.2×10⁶ are incubated with the experimental antibody (100 nM) for 30 min in PBS 1% BSA on ice. […] Cells are washed 3× and analyzed via flow cytometry. Flow cytometry is performed on an Accuri C6 system (BD Biosciences) and MFIs are calculated on the C6 software. EC50 s are calculated on Graphpad software.

T4 sequence (Q15116 25-167 limits assumed): as above
T2 sequence (Q15116 25-167 limits assumed): as above
T1 sequence (Q15116 25-288 limits assumed): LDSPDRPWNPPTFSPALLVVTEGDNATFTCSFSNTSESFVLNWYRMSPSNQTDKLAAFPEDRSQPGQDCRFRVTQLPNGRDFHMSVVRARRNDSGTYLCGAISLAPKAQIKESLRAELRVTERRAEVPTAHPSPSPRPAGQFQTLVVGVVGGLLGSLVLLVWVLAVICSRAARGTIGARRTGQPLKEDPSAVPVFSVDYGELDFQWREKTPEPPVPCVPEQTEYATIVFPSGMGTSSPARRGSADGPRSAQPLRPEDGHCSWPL
Chain of b-PD-1 monomer (human PD-1) (human) (Q15116 25-167 limits assumed): as the sequence (Q15116 25-167 limits assumed) above

As to nivolumab (antibody), in [1], the Kd (usually the equilibrium constant for the complex coming apart) stood at 5 pM.
Consider control IgG (antibody), for which the MFI (PD-L2-FITC) with human PD-1 on cells [2] was determined as 183000 MFI.
Turning to pembrolizumab Fab, in the assay with cynoPD-1_Fc (cyno), the Kd was determined as 470 pM.
The molecule nivolumab Fab had a Kd in the assay with cynoPD-1_Fc (cyno) of 1200 pM.

B1: Antibody B S228P IgG4 (xd-16 B) (antibody, V domains shown)
VH: QVQLVQSGAEVKKPGSSVKVSCKASGGTFSSTAISWVRQAPGQGLEWMGGIWPSFGTASYAQKFQGRVTITADESTSTAYMELSSLRSEDTAVYYCARAEYSSTGIFDYWGQGTLVTVSS
VL: DIQMTQSPSSVSASVGDRVTITCRASQGISSWLAWYQQKPGKAPKLLISAASSLQSGVPSRFSGSGSGTDFTLTISSLQPEDFATYYCQQANHLPFTFGGGTKVEIKR
notes: also called xd-16 B (IgG4 S228P); xd-16 B IgG4
As to B1, in the assay with human PD-1 on cells [3], the “IL-2 secretion fold change vs. IgG control, 0.01 nM IgG” value amounted to 1.15 fold; the “IL-2 secretion fold change vs. IgG control, 0.1 nM IgG” value stood at 1.46 fold; the “IL-2 secretion fold change vs. IgG control, 1 nM IgG” value amounted to 2.18 fold; the “IL-2 secretion fold change vs. IgG control, 10 nM IgG” value is 2.39 fold. In addition, in the assay with human PD-1 on cells [3], the “IL-2 secretion fold change vs. IgG control, 100 nM IgG” value came to 2.37 fold. For the same molecule, in the assay with human PD-1 on cells [4], the “IFNg secretion fold change vs. IgG control, 0.01 nM IgG” value came out at 1.09 fold; the “IFNg secretion fold change vs. IgG control, 0.1 nM IgG” value was found to be 1.59 fold; the “IFNg secretion fold change vs. IgG control, 1 nM IgG” value was determined as 2.15 fold; the “IFNg secretion fold change vs. IgG control, 10 nM IgG” value was 2.17 fold. In addition, the “IFNg secretion fold change vs. IgG control, 100 nM IgG” value with human PD-1 on cells [4] amounted to 1.9 fold. In addition, in the assay with human PD-1 on cells [5], a half-maximal response (EC50) required 1460 pM.

B2: xd-16 B, Fab format produced from IgG1 expressed in yeast (Fab, V domains shown)
VH: B1 VH
VL: DIQMTQSPSSVSASVGDRVTITCRASQGISSWLAWYQQKPGKAPKLLISAASSLQSGVPSRFSGSGSGTDFTLTISSLQPEDFATYYCQQANHLPFTFGGGTKVEIK
notes: Fab produced from the yeast IgG1
Turning to B2, the Kd in the assay with human PD-1_Fc was 630 pM; with cynoPD-1_Fc it was 780 pM.

B3: xd-16 B, IgG1 format expressed in yeast (antibody, V domains shown)
VH: B1 VH
VL: B2 VL
notes: Tested as IgG1 expressed in yeast; also called Antibody B
For B3, the values for the Kd (in [6]; in assay [7]; with human PD-1_His) were approximately 0.9 pM, 45 pM and 420 pM, respectively. In addition, the “MFI (PD-L2-FITC)” value in the assay with human PD-1 on cells [8] is 26400 MFI.

B4: xd-16 D, Fab format produced from IgG1 expressed in yeast (Fab, V domains shown)
VH: B1 VH with G56D, S59N, Q65R, I106T
VL: B2 VL
notes: as for B2
As for B4, the Kd in the assay with human PD-1_Fc was 990 pM; in the assay with cynoPD-1_Fc, 1200 pM.

B5: xd-16 C, Fab format produced from IgG1 expressed in yeast (Fab, V domains shown)
VH: B1 VH with Q65R, I106T
VL: B2 VL
notes: as for B2
Consider B5, for which the values for the equilibrium dissociation constant (Kd) with human PD-1_Fc and with cynoPD-1_Fc were 570 pM and 730 pM, respectively.

B6: xd-16 E, Fab format produced from IgG1 expressed in yeast (Fab, V domains shown)
VH: B1 VH with S59N, Q62R
VL: B2 VL
notes: as for B2
In the case of B6, the Kd with human PD-1_Fc came to 860 pM; with cynoPD-1_Fc, 1000 pM.

B7: xd-16 E, IgG1 format expressed in yeast (antibody, V domains shown)
VH: B1 VH with S59N, Q62R
VL: B2 VL
notes: Tested as IgG1 expressed in yeast; also called Antibody E
In the case of B7, the dissociation constant Kd was approximately 0.9 pM in [6], 150 pM in assay [7] and 560 pM with human PD-1_His. Besides, in the assay with human PD-1 on cells [8], the “MFI (PD-L2-FITC)” value stood at 40900 MFI.

B8: xd-16 C, IgG1 format expressed in yeast (antibody, V domains shown)
VH: B1 VH with Q65R, I106T
VL: B2 VL
notes: Tested as IgG1 expressed in yeast; also called Antibody C
With B8, the Kd was determined as 2.5 pM in [6], 50 pM in [7] and 380 pM in the assay with human PD-1_His. Moreover, the “MFI (PD-L2-FITC)” value with human PD-1 on cells [8] is 26500 MFI.

B9: Antibody D S228P IgG4 (xd-16 D) (antibody, V domains shown)
VH: B1 VH with G56D, S59N, Q65R, I106T
VL: B1 VL
notes: also called xd-16 D (IgG4 S228P); xd-16 D IgG4
Turning to B9, the response in the assay with human PD-1 on cells [5] was half-maximal at 1470 pM (EC50).

B10: xd-16 D, IgG1 format expressed in yeast (antibody, V domains shown)
VH: B1 VH with G56D, S59N, Q65R, I106T
VL: B2 VL
notes: Tested as IgG1 expressed in yeast; also called Antibody D
Take B10: the results for the dissociation constant (Kd) (in assay [6]; in [7]; in the assay with human PD-1_His) were 1.3 pM, 93 pM and 650 pM, respectively. Besides, the “MFI (PD-L2-FITC)” value with human PD-1 on cells [8] was 40000 MFI.
